# Measurements taken from publication PMC8927860, “Completing the family of human Eps15 homology domains: Solution structure of the internal Eps15 homology domain of γ‐synergin” (Protein Science : A Publication of the Protein Society, 2022).
# Entries after “also recorded” stand apart in the source; their conditions may differ. Ends that are not written are not given here.
# T1: EH domain of γ‐synergin (EHγ, residues 279–388) (Homo sapiens, UniProt Q9UMZ2)
# T1 construct: His-tag with TEV cleavage site (N, cleaved yes); made in house; host or cells: Escherichia coli BL21(DE3)
# T1 sequence (Q9UMZ2 279-388): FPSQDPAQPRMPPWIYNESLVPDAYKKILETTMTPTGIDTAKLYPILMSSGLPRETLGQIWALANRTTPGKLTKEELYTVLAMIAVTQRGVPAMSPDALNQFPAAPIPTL
# T2: EH domain of human γ-synergin, longest construct (residues 279–388) (human, UniProt Q9UMZ2 279-388)
# T2 chain: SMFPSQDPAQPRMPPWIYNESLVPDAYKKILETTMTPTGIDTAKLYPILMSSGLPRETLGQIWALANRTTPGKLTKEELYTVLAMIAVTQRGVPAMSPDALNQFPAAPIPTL
# T3: EH domain of human γ-synergin, longest construct (residues 279–388) (human, UniProt Q9UMZ2 279-388)
# T3 construct: two additional residues (Serine-Methionine) left at the N-terminus by the vector pNIC28-Bsa4 after TEV cleavage of the tag; γ-synergin, human, residues 279-388 (EH domain with N- and C-terminal structured extensions); also called EHγ; EHγ domain; source: E. coli BL21(DE3), purified (Ni-IMAC, TEV cleavage, SEC on Superdex 75); 15N-labelled in M9 medium for NMR; not shown: His tag, N-terminal, …
# T3 sequence: T2 chain
# B1: SCAMP1″, NPF repeat rich N-terminal fragment of secretory carrier membrane protein 1 (residues 1–52) (domain or fragment, human (hORFeome collection))
# chain: SMMSDFDSNPFADPDLNNPFKDPSVTQVTRNVPPGLDEYNPFSDSRTPPPGGVK
# notes: two additional residues (Serine-Methionine) left by the vector pNIC28-Bsa4 after TEV cleavage (same cloning procedure as for EHγ); secretory carrier membrane protein 1 (SCAMP1), residues 1-52, with three NPF repeats; gene from the hORFeome collection; also called SCAMP 1–52 fragment; NPF-repeats from the N-terminal domain of SCAMP1; source: E. coli BL21(DE3), purified (Ni-IMAC, TEV cleavage, …)
# B2: SCAMP1 (protein)
# chain: MSDFDSNPFADPDLNNPFKDPSVTQVTRNVPPGLDEYNPFSDSRTPPPGGVKMPNVPNTQPAIMKPTEEHPAYTQIAKEHALAQAELLKRQEELERKAAELDRREREMQNLSQHGRKNNWPPLPSNFPVG
# modifications: N-terminal cytosolic SCAMP1 construct, residues 1-130 (NPF repeats plus coiled coil, no TM helices); Ser-Met left at the N-terminus after TEV cleavage is omitted; human inferred from the hORFeome source
# B3: SCAMP1: N-terminal SCAMP1 construct devoid of transmembrane helices, comprising NPF repeat rich motifs and coiled coil (residues 1–130) (protein, UniProt O15126 1-130, looked up, fragment)
# chain: B2 chain
# B4: SCAMP1′: coiled coil domain of N-terminal SCAMP1, devoid of NPF-repeats (residues 65–130) (protein, UniProt O15126 65-130, looked up, fragment)
# chain: KPTEEHPAYTQIAKEHALAQAELLKRQEELERKAAELDRREREMQNLSQHGRKNNWPPLPSNFPVG
# Experiments:
# [1] = molecular target: T1, EH domain of γ‐synergin (EHγ, residues 279–388); assay: Isothermal titration calorimetry of SCAMP1 fragments and peptides with EHγ; assay type: binding; settings: ITC; for ∆H / ∆S / N (stoichiometry) / KD: 20 mM Tris, 100 mM NaCl, 2 mM CaCl2 pH 7.5, 20°C, one site binding model; for ∆H / ∆S / KD: n.b. = no binding; for N (stoichiometry) / KD: VP-ITC, 50–200 μM EHγ in cell, ligand 700–2000 μM
# Method: ITC measurements were performed on a VP‐ITC instruments (GE Healthcare, Chalfont St. Giles, UK). The calorimetric cell (with a total cell volume of 1,400 μl) contained 50–200 μM EHγ in 20 mM Tris, 100 mM NaCl, 2 mM CaCl2 pH 7.5. SCAMP1 fragments and peptides A, B, C at 700–2000 μM were titrated into the cell at 20°C. The heat generated after each ligand injection was obtained by integration of the calorimetric signal. Resulting binding isotherms were analyzed according to an one site binding model using the Origin software (OriginLab Corp., Northampton, MA, USA).
# [2] = molecular target: T1, EH domain of γ‐synergin (EHγ, residues 279–388); assay: Analytical size exclusion chromatography of EHγ–SCAMP1″ complex; assay type: binding; settings: complex compared with isolated EHγ and SCAMP1″; 100 μM EHγ and/or 100 μM SCAMP 1–52, Superdex 200 5/150 GL, 20 mM Tris pH 7.5, 100 mM NaCl, 2 mM CaCl2, 4°C
# Method: The quality and oligomeric state of the EHγ construct was assessed on an analytical gel filtration column (Superdex 75 5/150 GL, GE Healthcare). To guarantee reproducible and reliable gel filtration runs, an ÄKTAmicro™ (GE Healthcare) was coupled to an auto sampler, which automatically injected with high‐precision 25 μl of protein sample.[36] Analytical gel filtration runs were performed in duplicates in the cold room at a flow rate of 0.2 ml/min in gel filtration buffer (20 mM Tris pH 7.5, 100 mM NaCl, 2 mM CaCl2). The used EHγ construct was injected spanning a concentration range of 10–1,000 μM. The column has been calibrated with protein standards ranging from 6.5 to 75 kDa. Interactions between EHγ and the SCAMP 1–52 fragment were also probed using this analytical gel filtration setup; the proteins alone or the potential complex (at concentrations of 100 μM EHγ and/or 100 μM SCAMP 1–52) were applied to a Superdex™ 200 5/150 GL analytical gel filtration column and analyzed. Analytical gel filtration runs were performed at 4°C at a flow rate of 0.2 ml/min in the gel filtration buffer.
# [3] = molecular target: T2, EH domain of human γ-synergin, longest …; assay: ITC
# [4] = molecular target: T3, EH domain of human γ-synergin, longest …; assay: NMR titration; unlabelled peptide added stepwise to 15N-labelled EHγ, 1H-15N HSQC, up to n = 2 (Pep A, C) and n = 3.2 (Pep B); 20 mM Tris pH 7.5, 100 mM NaCl, 2 mM CaCl2, 10% D2O, 298 K; joint fit of I324, L325, W339 to a one site binding model; settings: both partners purified
# [5] = molecular target: T3, EH domain of human γ-synergin, longest …; assay: ITC; EHγ 50–200 μM in the cell, SCAMP1 fragments and peptides A, B, C at 700–2000 μM titrated in; 20 mM Tris, 100 mM NaCl, 2 mM CaCl2 pH 7.5, 20°C; one site binding model; settings: both partners purified
Molecule,∆H [1] [kcal/mol],∆S [1] [cal/mol/deg],N (stoichiometry) [1],Kd [3] [µM],other results
ADPDLNNPFKDPSVTY-NH2 [Peptide B],-12.0 ± 1.5,-23.3,1.1 ± 0.2,–,–
SDFDSNPFADPDLNY-NH2 [Peptide A],-21.1 ± 2.4,-55.2,1.2 ± 0.1,–,–
GLDEYNPFSDSRT-NH2 [Peptide C],-22.9 ± 2.7,-59.8,1.0 ± 0.1,–,–
"SCAMP1″: NPF repeat rich fragment of SCAMP1 possessing three NPF-motifs (residues 1–52) (MSDFDSNPFADPDLNNPFKDPSVTQVTRNVPPGLDEYNPFSDSRTPPPGGVK; UniProt O15126 1-52, looked up, fragment)",–,–,0.33 ± 0.01,–,"enthalpic/entropic contribution to binding (in words) ([1]; SCAMP1″ (three NPF-motifs) compared to sum of / individual peptides A, B, C): no enthalpic gain; also recorded: largely reduced entropic penalty; complex formation by SEC (elution) [2]: lower retention volume"
"GLDEYNPFSDSRT-NH2 [peptide C, SCAMP1 derived peptide with a single NPF-repeat]",–,–,–,90,Kd [4]: 30 ± 20 µM
B1,–,–,–,9.9,binding result [5]: binds
"ADPDLNNPFKDPSVTY-NH2 [peptide B, SCAMP1 derived peptide with a single NPF-repeat]",–,–,–,140,Kd [4]: 120 ± 30 µM
B2,–,–,–,9,–
B3,-7.5 ± 1.1,-2.3,0.38 ± 0.04,–,∆H ([1]; listed as SCAMP1’): n.b.; ∆S ([1]; listed as SCAMP1’): n.b.; ∆H ([1]; listed as SCAMP1’’): -41.3 ± 1.3 kcal/mol; ∆S ([1]; listed as SCAMP1’’): -118.0 cal/mol/deg; N (stoichiometry) ([1]; listed as SCAMP1’): n.b.; N (stoichiometry) ([1]; listed as SCAMP1’’): 0.33 ± 0.01; KD ([1]; listed as SCAMP1’): n.b.; KD ([1]; listed as SCAMP1’’): 9.9 ± 0.4 µM
B4,–,–,n.b.,–,KD [1]: n.b.
"SDFDSNPFADPDLNY-NH2 [peptide A, SCAMP1 derived peptide with a single NPF-repeat]",–,–,–,250,Kd [4]: 110 ± 10 µM
